*1 amine or outer side, *2 acyl side, *3 side chain or, on linkers, in order; H or OH if unused. Where no end group is shown, it is not given here. Side-chain parts run from the residue outwards. The star is where a group is joined. C18 diacid = O=C(O)CCCCCCCCCCCCCCCCC(=O)*; C16 diacid = O=C(O)CCCCCCCCCCCCCCC(=O)*; γGlu = O=C(O)[C@H](CCC(=O)[*:2])N[*:1]; AEEA = NCCOCCOCC(=O)O
T1: human GIP receptor (human, UniProt P48546 22-466)
T1 sequence (looked up): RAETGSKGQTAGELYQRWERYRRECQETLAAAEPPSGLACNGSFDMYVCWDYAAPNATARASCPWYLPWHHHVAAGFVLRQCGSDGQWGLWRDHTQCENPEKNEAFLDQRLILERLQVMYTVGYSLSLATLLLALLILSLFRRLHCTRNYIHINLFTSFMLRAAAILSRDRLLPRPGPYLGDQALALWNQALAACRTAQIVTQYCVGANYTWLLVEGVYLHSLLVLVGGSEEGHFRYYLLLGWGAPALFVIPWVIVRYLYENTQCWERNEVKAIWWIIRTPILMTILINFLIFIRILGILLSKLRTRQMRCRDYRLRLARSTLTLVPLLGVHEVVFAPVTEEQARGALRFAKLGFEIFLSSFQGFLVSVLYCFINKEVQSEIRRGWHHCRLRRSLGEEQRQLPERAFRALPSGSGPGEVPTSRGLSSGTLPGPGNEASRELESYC

B1: AT468 (peptide)
peptide: EGTFISDYSIAMDKIK(C16 diacid)QQDFVNWLLAQKGPSSGAPP-OH
modifications: N-terminus assumed
SMILES: CC[C@H](C)[C@H](NC(=O)[C@H](CO)NC(=O)[C@H](Cc1ccc(O)cc1)NC(=O)[C@H](CC(=O)O)NC(=O)[C@H](CO)NC(=O)[C@@H](NC(=O)[C@H](Cc1ccccc1)NC(=O)[C@@H](NC(=O)CNC(=O)[C@@H](N)CCC(=O)O)[C@@H](C)O)[C@@H](C)CC)C(=O)N[C@@H](C)C(=O)N[C@@H](CCSC)C(=O)N[C@@H](CC(=O)O)C(=O)N[C@@H](CCCCN)C(=O)N[C@H](C(=O)N[C@@H](CCCCNC(=O)CCCCCCCCCCCCCCC(=O)O)C(=O)N[C@@H](CCC(N)=O)C(=O)N[C@@H](CCC(N)=O)C(=O)N[C@@H](CC(=O)O)C(=O)N[C@@H](Cc1ccccc1)C(=O)N[C@H](C(=O)N[C@@H](CC(N)=O)C(=O)N[C@@H](Cc1c[nH]c2ccccc12)C(=O)N[C@@H](CC(C)C)C(=O)N[C@@H](CC(C)C)C(=O)N[C@@H](C)C(=O)N[C@@H](CCC(N)=O)C(=O)N[C@@H](CCCCN)C(=O)NCC(=O)N1CCC[C@H]1C(=O)N[C@@H](CO)C(=O)N[C@@H](CO)C(=O)NCC(=O)N[C@@H](C)C(=O)N1CCC[C@H]1C(=O)N1CCC[C@H]1C(=O)O)C(C)C)[C@@H](C)CC
B2: AT469 (peptide)
peptide: EGTFISDYSIAMDKIK(C16 diacid)QQDFVNWLLAQKGPSSGAP-OH
modifications: N-terminus assumed
SMILES: CC[C@H](C)[C@H](NC(=O)[C@H](CO)NC(=O)[C@H](Cc1ccc(O)cc1)NC(=O)[C@H](CC(=O)O)NC(=O)[C@H](CO)NC(=O)[C@@H](NC(=O)[C@H](Cc1ccccc1)NC(=O)[C@@H](NC(=O)CNC(=O)[C@@H](N)CCC(=O)O)[C@@H](C)O)[C@@H](C)CC)C(=O)N[C@@H](C)C(=O)N[C@@H](CCSC)C(=O)N[C@@H](CC(=O)O)C(=O)N[C@@H](CCCCN)C(=O)N[C@H](C(=O)N[C@@H](CCCCNC(=O)CCCCCCCCCCCCCCC(=O)O)C(=O)N[C@@H](CCC(N)=O)C(=O)N[C@@H](CCC(N)=O)C(=O)N[C@@H](CC(=O)O)C(=O)N[C@@H](Cc1ccccc1)C(=O)N[C@H](C(=O)N[C@@H](CC(N)=O)C(=O)N[C@@H](Cc1c[nH]c2ccccc12)C(=O)N[C@@H](CC(C)C)C(=O)N[C@@H](CC(C)C)C(=O)N[C@@H](C)C(=O)N[C@@H](CCC(N)=O)C(=O)N[C@@H](CCCCN)C(=O)NCC(=O)N1CCC[C@H]1C(=O)N[C@@H](CO)C(=O)N[C@@H](CO)C(=O)NCC(=O)N[C@@H](C)C(=O)N1CCC[C@H]1C(=O)O)C(C)C)[C@@H](C)CC
B3: AT467 (peptide)
peptide: EGTFISDYSIAMDKIK(C16 diacid)QQDFVNWLLAQKGPSSGAPPP-OH
modifications: N-terminus assumed
SMILES: CC[C@H](C)[C@H](NC(=O)[C@H](CO)NC(=O)[C@H](Cc1ccc(O)cc1)NC(=O)[C@H](CC(=O)O)NC(=O)[C@H](CO)NC(=O)[C@@H](NC(=O)[C@H](Cc1ccccc1)NC(=O)[C@@H](NC(=O)CNC(=O)[C@@H](N)CCC(=O)O)[C@@H](C)O)[C@@H](C)CC)C(=O)N[C@@H](C)C(=O)N[C@@H](CCSC)C(=O)N[C@@H](CC(=O)O)C(=O)N[C@@H](CCCCN)C(=O)N[C@H](C(=O)N[C@@H](CCCCNC(=O)CCCCCCCCCCCCCCC(=O)O)C(=O)N[C@@H](CCC(N)=O)C(=O)N[C@@H](CCC(N)=O)C(=O)N[C@@H](CC(=O)O)C(=O)N[C@@H](Cc1ccccc1)C(=O)N[C@H](C(=O)N[C@@H](CC(N)=O)C(=O)N[C@@H](Cc1c[nH]c2ccccc12)C(=O)N[C@@H](CC(C)C)C(=O)N[C@@H](CC(C)C)C(=O)N[C@@H](C)C(=O)N[C@@H](CCC(N)=O)C(=O)N[C@@H](CCCCN)C(=O)NCC(=O)N1CCC[C@H]1C(=O)N[C@@H](CO)C(=O)N[C@@H](CO)C(=O)NCC(=O)N[C@@H](C)C(=O)N1CCC[C@H]1C(=O)N1CCC[C@H]1C(=O)N1CCC[C@H]1C(=O)O)C(C)C)[C@@H](C)CC
B4: AT470 (peptide)
peptide: EGTFISDYSIAMDKIK(C16 diacid)QQDFVNWLLAQKGPSSGA-OH
modifications: N-terminus assumed
SMILES: CC[C@H](C)[C@H](NC(=O)[C@H](CO)NC(=O)[C@H](Cc1ccc(O)cc1)NC(=O)[C@H](CC(=O)O)NC(=O)[C@H](CO)NC(=O)[C@@H](NC(=O)[C@H](Cc1ccccc1)NC(=O)[C@@H](NC(=O)CNC(=O)[C@@H](N)CCC(=O)O)[C@@H](C)O)[C@@H](C)CC)C(=O)N[C@@H](C)C(=O)N[C@@H](CCSC)C(=O)N[C@@H](CC(=O)O)C(=O)N[C@@H](CCCCN)C(=O)N[C@H](C(=O)N[C@@H](CCCCNC(=O)CCCCCCCCCCCCCCC(=O)O)C(=O)N[C@@H](CCC(N)=O)C(=O)N[C@@H](CCC(N)=O)C(=O)N[C@@H](CC(=O)O)C(=O)N[C@@H](Cc1ccccc1)C(=O)N[C@H](C(=O)N[C@@H](CC(N)=O)C(=O)N[C@@H](Cc1c[nH]c2ccccc12)C(=O)N[C@@H](CC(C)C)C(=O)N[C@@H](CC(C)C)C(=O)N[C@@H](C)C(=O)N[C@@H](CCC(N)=O)C(=O)N[C@@H](CCCCN)C(=O)NCC(=O)N1CCC[C@H]1C(=O)N[C@@H](CO)C(=O)N[C@@H](CO)C(=O)NCC(=O)N[C@@H](C)C(=O)O)C(C)C)[C@@H](C)CC
B5: AT441 (peptide)
peptide: SGTFISDYSIAMDRIK([AEEA-AEEA-γGlu-C18 diacid])QQDFVNWLLAQRGPSSGAPPPS-OH
modifications: N-terminus assumed
SMILES: CC[C@H](C)[C@H](NC(=O)[C@H](CO)NC(=O)[C@H](Cc1ccc(O)cc1)NC(=O)[C@H](CC(=O)O)NC(=O)[C@H](CO)NC(=O)[C@@H](NC(=O)[C@H](Cc1ccccc1)NC(=O)[C@@H](NC(=O)CNC(=O)[C@@H](N)CO)[C@@H](C)O)[C@@H](C)CC)C(=O)N[C@@H](C)C(=O)N[C@@H](CCSC)C(=O)N[C@@H](CC(=O)O)C(=O)N[C@@H](CCCNC(=N)N)C(=O)N[C@H](C(=O)N[C@@H](CCCCNC(=O)COCCOCCNC(=O)COCCOCCNC(=O)CC[C@H](NC(=O)CCCCCCCCCCCCCCCCC(=O)O)C(=O)O)C(=O)N[C@@H](CCC(N)=O)C(=O)N[C@@H](CCC(N)=O)C(=O)N[C@@H](CC(=O)O)C(=O)N[C@@H](Cc1ccccc1)C(=O)N[C@H](C(=O)N[C@@H](CC(N)=O)C(=O)N[C@@H](Cc1c[nH]c2ccccc12)C(=O)N[C@@H](CC(C)C)C(=O)N[C@@H](CC(C)C)C(=O)N[C@@H](C)C(=O)N[C@@H](CCC(N)=O)C(=O)N[C@@H](CCCNC(=N)N)C(=O)NCC(=O)N1CCC[C@H]1C(=O)N[C@@H](CO)C(=O)N[C@@H](CO)C(=O)NCC(=O)N[C@@H](C)C(=O)N1CCC[C@H]1C(=O)N1CCC[C@H]1C(=O)N1CCC[C@H]1C(=O)N[C@@H](CO)C(=O)O)C(C)C)[C@@H](C)CC

biological target: T1, human GIP receptor; assay: cell-based or functional assay

Point of comparison: B5, “cAMP agonism % Emax” value 0%. Against it:
- B1 — the same, 0%
- B2 — the same, 0%
- B3 — the same, 0%
- B4 — the same, 0%

Point of comparison: B2, “cAMP antagonism” value 3.8 nM. Against it:
- B1 — 3.3-fold higher, 12.6 nM
- B3 — 3.9-fold higher, 14.7 nM
- B4 — 5.3-fold higher, 20 nM
- B5 — 5.7-fold higher, 21.5 nM

Point of comparison: B4, “cAMP antagonism % inhib” value 91%. Against it:
- B1 — higher, 92%
- B2 — higher, 93%
- B3 — lower, 86%
- B5 — lower, 89%

Point of comparison: B3, “cAMP antagonism pIC50” value 7.8. Against it:
- B1 — within 0.2 log units, 7.9
- B2 — higher, 8.4
- B4 — within 0.2 log units, 7.7
- B5 — within 0.2 log units, 7.7

biological target: T1, human GIP receptor; assay: cell-based or functional assay; remark: another data set of the same source

With B1 the “cAMP agonism Emax” value was 4.6.

Point of comparison: B5, “cAMP antagonism” value 25 nM. Against it:
- B1 — 1.9-fold lower, 13 nM
- B2 — 8.3-fold lower, 3 nM
- B3 — 4.2-fold lower, 6 nM
- B4 — 1.8-fold lower, 14 nM

Point of comparison: B1, “cAMP antagonism % inhib” value 95%. Against it:
- B2 — lower, 90%
- B3 — higher, 100%
- B4 — higher, 100%
- B5 — lower, 55%

Point of comparison: B2, cAMP antagonism log -8.5 log M. Against it:
- B1 — higher, -7.9 log M
- B3 — higher, -8.2 log M
- B4 — higher, -7.8 log M
- B5 — higher, -7.6 log M
